Measured values reported in publication PMC6175878, “ROS-induced R loops trigger a transcription-coupled but BRCA1/2-independent homologous recombination pathway through CSB” (Nature Communications, 2018).
One block for each molecule: values may come before it.

Columns and labels:
[1] = target: 6H-Flag-CSB (human) (UniProt Q03468); experiment: SEC; Superdex 200 in Buffer B (25 mM Tris-Cl pH 7.5, 10% glycerol, 0.5 mM EDTA, 500 mM KCl, 0.01% IGEPAL, 1 mM DTT), 4 °C; last step of the purification
[2] = target: 6H-Flag-CSB full length (CSB-FL) (human, UniProt Q03468 1-1493); experiment: EMSA; 1 mM Mg2+; much higher affinity than RAD52; EMSA: 25 mM Tris-HCl pH 7.5, 1 mM MgCl2, 1 mM DTT, 50 ug/mL BSA, 50 mM NaCl, 15 min 37 C, 6% PAGE-TBE at 4 C; pull-down: 20 mM Tris-HCl pH 7.5, 50 mM NaCl, 2 mM MgCl2, 0.1% Tween-20, 30% glycerol, RNase 0.2 U/uL (so in the source); settings: protein: recombinant; chain copies: 2; label: 5' maleimide-IR800 on oligo 1 (RNA); blunt
6H-Flag-CSB full length (CSB-FL), sequence (Q03468 whole entry): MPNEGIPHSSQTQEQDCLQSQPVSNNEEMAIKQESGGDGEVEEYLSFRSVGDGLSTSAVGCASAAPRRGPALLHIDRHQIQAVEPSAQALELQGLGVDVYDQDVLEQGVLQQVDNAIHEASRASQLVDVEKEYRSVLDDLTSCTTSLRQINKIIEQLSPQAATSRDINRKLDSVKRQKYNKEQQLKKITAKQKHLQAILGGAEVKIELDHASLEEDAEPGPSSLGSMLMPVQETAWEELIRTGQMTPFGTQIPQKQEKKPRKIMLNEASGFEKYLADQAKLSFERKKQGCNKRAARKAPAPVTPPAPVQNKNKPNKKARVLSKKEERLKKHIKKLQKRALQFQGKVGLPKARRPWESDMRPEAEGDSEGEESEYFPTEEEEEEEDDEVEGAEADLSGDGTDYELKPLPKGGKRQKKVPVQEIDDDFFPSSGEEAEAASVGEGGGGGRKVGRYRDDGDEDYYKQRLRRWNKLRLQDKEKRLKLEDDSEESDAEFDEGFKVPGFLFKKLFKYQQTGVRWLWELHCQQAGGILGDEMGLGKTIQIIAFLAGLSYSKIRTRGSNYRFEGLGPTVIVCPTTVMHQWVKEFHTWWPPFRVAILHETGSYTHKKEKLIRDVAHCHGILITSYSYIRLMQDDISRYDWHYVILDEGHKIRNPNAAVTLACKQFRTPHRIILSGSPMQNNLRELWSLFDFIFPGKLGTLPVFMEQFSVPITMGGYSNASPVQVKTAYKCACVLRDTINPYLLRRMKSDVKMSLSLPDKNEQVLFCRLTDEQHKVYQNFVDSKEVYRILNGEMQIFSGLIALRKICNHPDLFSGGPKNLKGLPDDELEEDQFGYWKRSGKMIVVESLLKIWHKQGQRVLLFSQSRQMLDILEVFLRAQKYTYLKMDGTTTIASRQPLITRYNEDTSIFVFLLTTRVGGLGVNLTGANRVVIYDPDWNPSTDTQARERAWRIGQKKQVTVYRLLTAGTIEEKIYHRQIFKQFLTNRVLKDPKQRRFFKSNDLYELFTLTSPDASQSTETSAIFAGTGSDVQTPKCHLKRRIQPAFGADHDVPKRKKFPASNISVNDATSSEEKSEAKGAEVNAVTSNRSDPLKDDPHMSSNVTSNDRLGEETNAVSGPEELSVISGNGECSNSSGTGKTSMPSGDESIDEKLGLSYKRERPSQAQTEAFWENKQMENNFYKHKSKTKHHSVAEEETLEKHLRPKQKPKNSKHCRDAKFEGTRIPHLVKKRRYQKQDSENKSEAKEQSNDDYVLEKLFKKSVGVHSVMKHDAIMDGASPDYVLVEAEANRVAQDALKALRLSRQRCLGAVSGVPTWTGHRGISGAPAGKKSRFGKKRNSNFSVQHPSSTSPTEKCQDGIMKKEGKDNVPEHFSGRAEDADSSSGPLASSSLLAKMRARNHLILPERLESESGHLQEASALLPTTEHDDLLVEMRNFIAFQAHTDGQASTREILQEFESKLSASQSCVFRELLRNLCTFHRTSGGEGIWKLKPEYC

[3] = target: GST-CSB-AD (human, UniProt Q03468 337-509); experiment: EMSA; 1 mM Mg2+; EMSA: 25 mM Tris-HCl pH 7.5, 1 mM MgCl2, 1 mM DTT, 50 ug/mL BSA, 50 mM NaCl, 15 min 37 C, 6% PAGE-TBE at 4 C; pull-down: 20 mM Tris-HCl pH 7.5, 50 mM NaCl, 2 mM MgCl2, 0.1% Tween-20, 30% glycerol, RNase 0.2 U/uL (so in the source); settings: protein: recombinant; tags: GST (N-term, pGEX-4T-3); label: 5' maleimide-IR800 on oligo 1 (RNA); blunt
[4] = target: GST-CSB-CTD (human, UniProt Q03468 1200-1493); experiment: as above; settings: protein: recombinant; tags: GST (N-term, pGEX-4T); label: 5' maleimide-IR800 on oligo 1 (RNA); blunt
GST-CSB-CTD, sequence (Q03468 1200-1493): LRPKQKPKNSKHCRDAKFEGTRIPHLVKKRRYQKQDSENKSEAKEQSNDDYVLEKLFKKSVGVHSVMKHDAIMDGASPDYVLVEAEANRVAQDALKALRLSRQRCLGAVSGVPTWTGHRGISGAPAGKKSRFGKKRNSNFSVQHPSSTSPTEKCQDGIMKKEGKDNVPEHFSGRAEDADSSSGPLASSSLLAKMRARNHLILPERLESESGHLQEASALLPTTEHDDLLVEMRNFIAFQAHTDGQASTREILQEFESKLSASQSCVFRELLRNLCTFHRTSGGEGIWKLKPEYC

[5] = target: T1, RAD52 (human, UniProt P43351 1-418); experiment: EMSA; 1 mM Mg2+; lower affinity than CSB-FL; EMSA: 25 mM Tris-HCl pH 7.5, 1 mM MgCl2, 1 mM DTT, 50 ug/mL BSA, 50 mM NaCl, 15 min 37 C, 6% PAGE-TBE at 4 C; pull-down: 20 mM Tris-HCl pH 7.5, 50 mM NaCl, 2 mM MgCl2, 0.1% Tween-20, 30% glycerol, RNase 0.2 U/uL (so in the source); settings: protein: recombinant; tags: C-terminal 6xHis; label: 5' maleimide-IR800 on oligo 1 (RNA); blunt
T1 sequence: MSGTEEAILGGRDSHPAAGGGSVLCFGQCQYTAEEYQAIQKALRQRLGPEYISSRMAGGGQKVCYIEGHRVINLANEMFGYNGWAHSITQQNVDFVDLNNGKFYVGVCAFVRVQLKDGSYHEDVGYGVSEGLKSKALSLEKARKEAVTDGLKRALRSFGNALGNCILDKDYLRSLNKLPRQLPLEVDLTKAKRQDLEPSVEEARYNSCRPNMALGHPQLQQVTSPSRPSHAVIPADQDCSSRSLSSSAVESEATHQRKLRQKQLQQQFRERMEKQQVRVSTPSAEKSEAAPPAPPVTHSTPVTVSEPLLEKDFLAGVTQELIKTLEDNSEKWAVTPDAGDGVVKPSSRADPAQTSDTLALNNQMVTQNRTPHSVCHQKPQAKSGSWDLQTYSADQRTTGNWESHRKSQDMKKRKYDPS

[6] = target: T2, hRAD52 with a C-terminal 6x-his tag (human, UniProt P43351 1-418); experiment: cross-linking; 1 mM DSS, 100 mM Hepes pH 7.5, 50 mM KCl, 25 °C, 1 h; cross-linked species (>250 kDa) cut from SDS-PAGE, trypsin, mass spectrometry (pLink); settings: both partners purified
T2 construct: RAD52, human (hRAD52), from pET28b-RAD52; also called His-RAD52; RAD52 protein; source: E. coli Rosetta, purified (Affiblue, Ni-NTA); not shown: His6, C-terminal, kept
T2 sequence (looked up): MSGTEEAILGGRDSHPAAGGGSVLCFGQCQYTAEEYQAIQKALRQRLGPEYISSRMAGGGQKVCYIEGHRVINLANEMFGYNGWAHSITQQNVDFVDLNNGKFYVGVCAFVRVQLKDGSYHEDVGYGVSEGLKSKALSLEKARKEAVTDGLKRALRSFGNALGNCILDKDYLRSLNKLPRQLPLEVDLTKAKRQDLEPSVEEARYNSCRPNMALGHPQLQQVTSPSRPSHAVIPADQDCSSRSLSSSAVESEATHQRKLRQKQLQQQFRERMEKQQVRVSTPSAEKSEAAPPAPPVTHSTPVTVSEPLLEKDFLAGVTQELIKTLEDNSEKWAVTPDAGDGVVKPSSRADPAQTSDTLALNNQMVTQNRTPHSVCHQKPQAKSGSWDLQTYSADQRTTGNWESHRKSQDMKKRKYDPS

stoichiometry N [1]: 2
Molecule: 6H-Flag-CSB (from UniProt Q03468 1-1493) (natural protein; other documents disagree on this pair)

B1: DNA:RNA hybrid oligo 1/oligo 2 (DNA:RNA)
RNA: UUAAUUGGUGUGACUAAUCGAAGUUGAUACAUCGACGUUAUGGUGAUGAU
DNA: ATCATCACCATAACGTCGATGTATCAACTTCGATTAGTCACACCAATTAA
binding result [2]: binds | binding result [3]: no binding | binding result [4]: binds | binding result [5]: binds

binding result [6]: binds
B2: GST-CSB-AD (residues 337-509) (domain or fragment, human, UniProt Q03468 337-509, looked up)
chain: KRALQFQGKVGLPKARRPWESDMRPEAEGDSEGEESEYFPTEEEEEEEDDEVEGAEADLSGDGTDYELKPLPKGGKRQKKVPVQEIDDDFFPSSGEEAEAASVGEGGGGGRKVGRYRDDGDEDYYKQRLRRWNKLRLQDKEKRLKLEDDSEESDAEFDEGFKVPGFLFKKLFK
notes: Cockayne Syndrome Protein B (CSB), human, acidic domain residues 337-509; Inserted into pGEX-4T-3 with XhoI and NotI; also called GST-tagged human CSB-AD; purified CSB-AD; source: E. coli Rosetta 2, purified (glutathione sepharose 4B)
